The text below walks through data of patent publication US20130273053A1 (UNIVERSITY OF LEICESTER, published 2013).

This assay addresses T1, human MASP-3 (human).
T1 construct: also called MASP-3 antigen
T1 chain: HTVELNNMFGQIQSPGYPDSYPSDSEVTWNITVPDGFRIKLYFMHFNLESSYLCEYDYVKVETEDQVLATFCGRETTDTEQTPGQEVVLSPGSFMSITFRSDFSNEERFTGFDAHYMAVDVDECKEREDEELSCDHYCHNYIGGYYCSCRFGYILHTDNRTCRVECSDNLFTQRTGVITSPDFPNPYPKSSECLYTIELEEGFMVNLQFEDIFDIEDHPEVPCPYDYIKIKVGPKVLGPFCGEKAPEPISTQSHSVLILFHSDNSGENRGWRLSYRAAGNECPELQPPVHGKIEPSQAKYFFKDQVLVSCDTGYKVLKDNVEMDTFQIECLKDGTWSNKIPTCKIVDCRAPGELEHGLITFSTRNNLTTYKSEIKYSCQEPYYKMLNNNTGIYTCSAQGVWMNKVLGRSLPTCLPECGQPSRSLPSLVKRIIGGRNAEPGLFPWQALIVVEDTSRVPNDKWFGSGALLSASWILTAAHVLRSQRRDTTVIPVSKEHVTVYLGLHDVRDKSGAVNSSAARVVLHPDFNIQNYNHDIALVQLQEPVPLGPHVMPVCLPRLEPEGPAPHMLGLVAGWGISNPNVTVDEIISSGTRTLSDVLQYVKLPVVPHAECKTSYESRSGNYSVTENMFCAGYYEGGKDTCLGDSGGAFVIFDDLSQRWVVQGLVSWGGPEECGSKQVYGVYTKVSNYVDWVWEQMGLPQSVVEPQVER
In words: saturation binding, DTLacO cells stained with fluorescent-labeled soluble antigen. An excerpt:
Recombinant antibodies were generated by cloning PCR-amplified V regions into a vector that supported expression of human IgG1 in 293F cells (Yabuki et al., PLoS ONE, 7(4):e36032 (2012)).

B1: MASP-3 specific clone M3J5 (antibody, IgM, V domains shown)
VH: AVTLDESGGGLQTPGGGLSLVCKASGFTFSSYAMGWMRQAPGKGLEYVAGIRSDGSFTLYATAVKGRATISRDNGQSTVRLQLNNLRAEDTATYFCTRSGNVGDIDAWGHGTEVIVSS
VL: ALTQPASVSANPGETVKITCSGGYSGYAGSYYYGWYQQKAPGSAPVTLIYYNNKRPSDIPSRFSGSLSGSTNTLTITGVRADDEAVYFCGSADNSGAAFGAGTTLTVL
notes: Chicken V regions; also called Clone 5; DTLacO clone M3J5
As usually defined, the Kd is the free concentration of one partner at which half of the binding sites on the other are occupied at equilibrium, for simple one-to-one binding. B1 had a Kd of approximately 31 nM.
